Laboratory results as given in patent US20040110711A1.

Target: mouse full-length TrkB (TrkB.FL) (mouse)
Assay: cell-based or functional assay

- TrkB phosphorylation in Ts16 neurons against euploid neurons: 33 % less
Substance: BDNF (brain derived neurotrophic factor), supplied by Regeneron Pharmaceuticals (from UniProt P23560 129-247) (ligand)
- neuron survival 36 hours after B27 withdrawal: 65%
